US20240002475A1 (ROCKEFELLER UNIVERSITY, published 2024)

Molecular target: green fluorescent protein (GFP), recombinant (Aequorea victoria, UniProt P42212 1-238 = GFP)
Assay: not stated there (SPR or in vitro binding assay)

B1: LaG-41 (VHH)
VHH: DVQLVESGGGLVQAGGSLRLSCAASGPTGAMAWFRQAPGKEREFVGGISGSETDTYYVDSVKGRFTVDRDNVKNTVYLQMNSLKPEDTAVYYCAARRRITLFTSRTDYDFWGRGTQVTV
- Kd: 0.9 nM
